Data reported in the nanobody polyreactivity screen of Harvey et al. (2022).

Assay: yeast display, Sf9 membrane polyspecificity reagent, FACS + sequencing; frameworks hold sequencing errors
How it was run: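 Synthetic nanobody libraries on Saccharomyces cerevisiae BJ5465 were galactose-induced for 36–48 hours, stained 1 hour at 4 °C with 10% biotinylated, detergent-solubilized Sf9 membrane reagent and enriched on streptavidin microbeads. FACS then separated cells into low and high (top ~1%) gates by anti-HA (expression) and streptavidin (reagent binding) fluorescence. Genes were colony-PCR amplified, MiSeq 2 × 250 sequenced and CDR-length filtered. A clone's polyreactivity label is that of its gate of origin.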

For “QVQLQESGGRLVQSCGTLRLSCAASGTITVLYKIGRFRQAPGKEREFVASINYGTSTYYADSVKGRFTVSRDSAKNTVYLQMNSLKPEDTAVYYCAAAYRWQDVYRYWVQGTQVTVSS”, the “polyreactivity (PSR sort gate)” value was “low polyreactivity”.

With “QDQLVESGGGLVQAGGSLRLSCASSGLIFYTSSMGWYSQAPGKESGLVAAITRSDSSTYYADSVKGRFTISRDNATNTVYLQMTSLKPEDPAVYYFATPSVFLFSEYDYWGQGTKVTVSS” the “polyreactivity (PSR sort gate)” value was “low polyreactivity”.

In the case of “QVQLVESGRGLVQAGGSLRLSCAASGSTFVANDMGWYSQAPGKERELVAAISWSDATTYYADSVKGRGTISRDNAKNTVYLQMNSRKPEDNAVYDCAATRDTNNMDYWGHGTQVTVSS”, the “polyreactivity (PSR sort gate)” value was “low polyreactivity”.

With “QVQLVESGGGLVQAGGSLRLSCAASGRIFGYYAMGWYRQAPGKERELVAAITRGGSTNYADSVKGRFTISRDNAKNTVYLQMNSLKPEDTAVYYCNARRYRPGSASYDYWGQGTQVTVSS” the “polyreactivity (PSR sort gate)” value was “high polyreactivity”.

In the case of “QVQLVESGGGLVQAGGSLRLSCAASGFTFDGYAMGWYRQAPGKERELVAAISDSGDSTYYADSVKGRFTISRDNAKNTVYLQMNSLKPEDTAVYYCAAGLGYYWSDYFAYDYWGQGTQVTVSS”, the “polyreactivity (PSR sort gate)” value was “low polyreactivity”.

With “QVQLVESGGGLVQAGGSLRLSCAASGSTLRRYAMGWYRQAPGTERELVASNSRGGTSTYYADSVKGRFTISRDNAKNTVYLQMKSLKPEDTAVYYCAAATPYRYNYWGQGTQVTVSS” the “polyreactivity (PSR sort gate)” value was “high polyreactivity”.

With “QVQLVESGGGLVQAGGSLRLSCAASGRTFVTNAMGWYRQAPGKERELVAAISGTGGSTYYADSVKGRFTISRDNAKNTVYLQMNSLKPEDTAVYYCNKDYHVRYYYWGQGTLVTVSS” the “polyreactivity (PSR sort gate)” value was “low polyreactivity”.

For “QVQLVESGGGLVQAGGSLRLSCAASGRTFYANDMGWYRQAPGKERELVAAISSSVTSTHYADSVKGRFTISRDNAKNTVYLQMNSLKPEDTAVYYCNKDPIREVPPPGPSEMDYWGQGTQVTVSS”, the “polyreactivity (PSR sort gate)” value was “low polyreactivity”.

For “QVQLVESGGGLVQAGGSLRLSCAASGFTFSRYAMGWYRQAPGKERELVAVISSSGSRTYYADSVKGRFTISRDNAKNTVYLQMNSLTPEDTAVYYCAAKSYTVTGYEYWGQGTQVTVSS”, the “polyreactivity (PSR sort gate)” value was “high polyreactivity”.

With “QVQLVESGAGLVQAGGSLRLSCAASGFIFRQYAMGWYRQAPGQERELVAAISWSGGSTYYADSVKGRFTISRDNAKNTVYLQKNSLKPEDTAVYYCNVLTPPTDYDYWGQGTQVTVSS” the “polyreactivity (PSR sort gate)” value was “high polyreactivity”.

For “QVQLVESGGGLVQAGGSLRLSCAASGSTISYYAMGWYRQAPGKERELVAAITRSGGSTYYADSVKGRFTISRDNAKNTFYLQMNSLKPEDTAVYYCAKGWRYFVGWGQRSRYYFWGQGTQVTVSS”, the “polyreactivity (PSR sort gate)” value was “high polyreactivity”.

For “QVQLVESGGGLVQAGGSLRLSCAASGRTFWPYVMGWYRQAPGKERELVASITRSGGTTNYADSVKGRFTISRDNAKNTVYLQMNSLKPEDTAVYYCNARTVYSWSREYNYWGQGTQVTVSS”, the “polyreactivity (PSR sort gate)” value was “high polyreactivity”.

In the case of “QVQLVDSGGGLVQAGGSLRLRCAASGRTFTPYAMGWYRQAPGQERELVATISSGTSTNYADSVKGRFTISRDNAKNTVYLQMNSLKPEDTAVYDCAADGYTYKFDYWGQGTQVTVSS”, the “polyreactivity (PSR sort gate)” value was “low polyreactivity”.

In the case of “QVQLEESGGGLVQAGGSLRLSCAASGSIFLGNAMGWYRQAPGKERDLVAAISGGDSTNYADAVKGRFTISRDNAKNTGYLEMNCLKPEDTAVYYCNAVRTLYIWWPGYYYCGQGTQVTVSS”, the “polyreactivity (PSR sort gate)” value was “low polyreactivity”.

With “QVQLQESRGGLVQAGGSLCLSCAASGTIFIDGDMGWYRQAPGKEREFVAAIKPGGSAYYADSVKGRLPLAAITHTVYLQMNSLKPEDTAVYYCAAKLFDVYGYYYWGQGTQVTLSS” the “polyreactivity (PSR sort gate)” value was “low polyreactivity”.

In the case of “QVQLVESGGGLVQAGGSLRLSCAASGFTFSYNAMGWYRQAPGKERELVAGISYGGGNTFYADSVKGRFTISRDNAKNTVYLQMNSLKPEDTAVYDCAAVNKSGTYVEYDYWGQGTQVTVSS”, the “polyreactivity (PSR sort gate)” value was “low polyreactivity”.

For “QVQLVESGGGLVQAGGSLRLSCAASGSIFGYYAMGWYRQAPGKERELVASISGSGGTTYYADSVKGRFTISRDNAKNTVYLQMNSLKPEDTAVYYCAARRSMYGYPFVTSRRGYWGHGTQVTVSS”, the “polyreactivity (PSR sort gate)” value was “high polyreactivity”.

In the case of “QVQLVESGGGLVQAGGSLRLSCAASGRIFRTYAMGWYRQAPGKERELVAAINSVDRTYYADSVKGRFTISRDNAKNTVYLQMNSLKPEDTAVYYCAARGYRGHDEFGYWGQGTQVTVSS”, the “polyreactivity (PSR sort gate)” value was “high polyreactivity”.

With “QVQLVESGGGLVQAGGSLRLSCAASGIIFYDYAMGWYREAPGKERVLVGAISRSGGSTYYADSVKGRFTISRDNAKYTVYLQMNCLKPEDTAVYYCNAKYPFRKKYYYWGQGTQVTVAS” the “polyreactivity (PSR sort gate)” value was “high polyreactivity”.

For “QVQLVESGGGLVQAGGSLRLSCAASGRIFKVYAMGWYRQAPGKERELVATISRGGSTYYADSVKGRFTISRDNAKNTVYLQMNSLKPEDTAVYYCATQRERYYWFGAWSYDYWGQGTQVTVSS”, the “polyreactivity (PSR sort gate)” value was “low polyreactivity”.

In the case of “QVQLVESGAGLVQAGGSLRLSCASSGRTCDFYAMGWYRQAPGKERELVAAISSSCGSTYYADSVKGRFTISRDNAKNTVYLQMNSLKPEDTAVYYCAKDGRVHSPYDYWGQGTQVTVSS”, the “polyreactivity (PSR sort gate)” value was “low polyreactivity”.

With “QVQLVESGGGLVQAGGSLRLSCAASGIIFDYNAMGWYRQAPGKERELVAAISGRSGRTYYADSVKGRFTISRDNAKNTVYLQMNSLKPEDTAVYYCAARWYAGGNYWGQGTQVTVSS” the “polyreactivity (PSR sort gate)” value was “high polyreactivity”.

For “QVQLVESGGGLVQAGARLRLSCAASGSILPTNAMGWYRQAPGKERELVASITYNGGRTSYADSVKWRFTISRDNAKNTVYLQMNSLKPEDTAVYYCAARVWYQGYKSMGYWGQGTQVPVSS”, the “polyreactivity (PSR sort gate)” value was “high polyreactivity”.

In the case of “QVQLVESGGGLVQAGGSLRLSCAASGSIFRYYAMGWYRQAPGKERELVAAITSGGSTSYADSVKGRFTISRDNAKNTVYLQMNSLKPEDTAVYYCAKRSRHNKYYYWGQGTQVTVSS”, the “polyreactivity (PSR sort gate)” value was “high polyreactivity”.

With “QVQLVESGGGLVQAGGSLRLICAASGFTFRVYSMGWYRQAPGKEREFVASISWTGDTTYYADSVKGRFTISRDNAKNTVYLQMNSLKPEDTEVYYCAVDTILGYDYWGQVTQVTVSS” the “polyreactivity (PSR sort gate)” value was “low polyreactivity”.

For “QVQLVESGGGLVQAGGSLRLSCAASGFIFLPYVMGWYRQAPGKERELVAAISGGGGITYYADSVKGRFTISRDNAKNTVYLQMNSLKPEDTAVYYCAADDLHWLNSKRYSGRDYWGQGTQVTVSS”, the “polyreactivity (PSR sort gate)” value was “low polyreactivity”.

With “QVQLVESGGGLVQAGGSLRLTCDASGSSFIFNAMGWSRQAHGIEMELVAGITRRVDSTFYADSVKGRFTISRDNAKNTVYLQMTSLKPEDTGVFFFAARQYSGVKYNYWGQGTEVTVSS” the “polyreactivity (PSR sort gate)” value was “high polyreactivity”.

For “QVQLVESGGGLVQAGGSLRLSCAASGGTFKHYAMGWYRQAAGKERELVAAITRTGGSTYYADSVKGRYTISRDNAKNTVYLQMNSLKPEDTAVYYCAAQRPRGAYRHYDYWGQGTQVTVSS”, the “polyreactivity (PSR sort gate)” value was “high polyreactivity”.

With “QVQLVESGGGLVQAGGSLRLSCAASGSIFLSNARGWYIQAPGKERELVADIDWTRGDTYYADSVKGRFTISRDNAKNTVYLQMNSLKPEDTAVYDCAADYGYRNLLTEYGYWGQGTEVTVSS” the “polyreactivity (PSR sort gate)” value was “low polyreactivity”.

For “QVQHVESGRGLVQAGGSLRLSCAASGSIFSSYARGWSREAPGKERELVAAISQSGGDTYYADSVKGRFTISRDNAKNTVYLQMKSLKPEDTAVYYCAASVWYYPMDYWGQGTQVTVSS”, the “polyreactivity (PSR sort gate)” value was “low polyreactivity”.

With “QEQLQESGGGLVQAGGSLRLSCAASGSIFHLHIMCRYRQAPGKERESVAAISYGTSTYYADSVKGRFTICRDNAKNTVYLQMNSPKPDDTAVYYCAALFLVSKHHHYWGEGTQVTVSS” the “polyreactivity (PSR sort gate)” value was “low polyreactivity”.

For “QFQLVESGGGLVQSGGSLRLSCAPTGLIFRPYAMGCYRQAPGKERELVAGINSGGNTDYADSVKGRFTISRDNAKNTVYLQMNSLKPEDTAVYYCNREYQVTIYDYCGQGTQVTVSS”, the “polyreactivity (PSR sort gate)” value was “low polyreactivity”.

With “QVQLVESGGGLVQAGGSLRLSCAASGFIFYAYAMGWYRQAPGKERELVAAIDSGGNTYADSVKGRFTISRDNAKNTVYLQMNSLKPEDTAVYYCAVDGGEFSSYGYWGQGTQVTVSS” the “polyreactivity (PSR sort gate)” value was “low polyreactivity”.

In the case of “QVQLVESGGGLVQAGGSLRLSCAASGSTYWNAMGWYRQAPGKERELVAAITFRGGSTYADSLKGRFTISRDNAKNTVSLQMISLKPEDTAVYYCAKASYHRWYNVRNRAGYDYWGQGTQVTVSS”, the “polyreactivity (PSR sort gate)” value was “high polyreactivity”.

With “QVQLVESGGGLVQAGGSLRLSCAASGIIFQNYDMGWYRQAPGKARELVAAITGSGGSTYYADSVKGRFTISRDNAKNTVYLQMNSLKPEDTAVYYCNAVWEYYGKSDYWGQGTQVTVSS” the “polyreactivity (PSR sort gate)” value was “low polyreactivity”.

With “QVQLVESGGGLVQAGGSLRLSCAASGSIFDGNAMGWYREAPGKERELVAAISRRAGSTYYADSVKGRFTISRDNAKNTVYLQMNSLNPEDTAVYYCAASLYVPRFSRLGYDYWGQGTHVTVSS” the “polyreactivity (PSR sort gate)” value was “high polyreactivity”.

With “QVQLVESGGGLVQAGGSLRLSCAASGRTLGTNAMGWYRQARGKERELVAAISRTGTSTYYADSVKGRFTISRDNAKNTVYLQMNSLKPEDTAVYYCAVRVPVSIPPGNYYYWGQGTQVTVSS” the “polyreactivity (PSR sort gate)” value was “high polyreactivity”.

In the case of “QVQLVQSGGGLVQAGGSLRLISAASGSIFRYNAMGWYRHAPGKEREFVAAITRSGGSTYADSVKGRFTISRDNAKNTLYLQIHSLKPEDTAVYYCAATFKWYSHSKPRFDYWGHGTQVTVSS”, the “polyreactivity (PSR sort gate)” value was “low polyreactivity”.

With “QVQLVESGGGLVQAGGSLRLSCAASGFTFYKNAMGWYRQAPGKERELVAAISRSGGSTYYADSVKGRFTISRDNAKNTVYLKMNSLKPEDTAVYYWAKGYCNFYRSDYWGQGTHVTVSS” the “polyreactivity (PSR sort gate)” value was “high polyreactivity”.

For “QVQLVESGGGLVQAGGSLRLSCAASGSIFVSYAMVWYRQAPGKERELVAAITRSGGSTYYADSVKGRFTISRDNAKNTVYLQMNSLKPEDTAVYYCAARSYLGAYRRYYWGQGTQVTVSS”, the “polyreactivity (PSR sort gate)” value was “high polyreactivity”.

With “QVQLVESGGGLVQARGSLRLSCAASGSTFVQNAMGWYRQAPGKEREFVAAIRVSGDNTYYADSVKGRFTISLDNAKNTVYLQMNSLKPEDTAVYYFAATGTFVGSVDYWGQGTQVTVSS” the “polyreactivity (PSR sort gate)” value was “low polyreactivity”.

With “QVQLVESGGGLVQAGGSLRLSCAASGITFYQYAMGWYRQAPGTETELVAGISYSGGSTYYADSVKGRFTISRDNAKNTVYLQMNSLKPEDTAVYYCAAVQPVGLYPRTKYYYWGQGTQVTVSS” the “polyreactivity (PSR sort gate)” value was “high polyreactivity”.

With “QVQLVESGGGLVQAGGSLRLSCAASGRTIRYNAMGWYRHAPGKERELVAAITGSGGSTYYADSVKGRFTISRDNAKNTVYLQMNSLKPEDTAAYSCNAVGIWFPIRLIVPYDYWGQGTQVTVSS” the “polyreactivity (PSR sort gate)” value was “low polyreactivity”.
